Assay [1] has as its target human full-length B7H3 expressed on MCF-7 cells (human) (UniProt Q5ZPR3). The experiment in a line: cell-based or functional assay.
The target is the same in assay [2]. The experiment in a line: flow cytometry (FACS) on MCF-7 cells expressing human full-length B7H3; negative control.
In assay [3] the target is cynomolgus monkey B7H3 on transfected FlpinCHO cells (cynomolgus monkey). The experiment in a line: flow cytometry (FACS) on FlpinCHO cells transfected with cynomolgus monkey B7H3; negative control.

Chain of human full-length B7H3 expressed on MCF-7 cells (human) (Q5ZPR3 29-534 limits assumed): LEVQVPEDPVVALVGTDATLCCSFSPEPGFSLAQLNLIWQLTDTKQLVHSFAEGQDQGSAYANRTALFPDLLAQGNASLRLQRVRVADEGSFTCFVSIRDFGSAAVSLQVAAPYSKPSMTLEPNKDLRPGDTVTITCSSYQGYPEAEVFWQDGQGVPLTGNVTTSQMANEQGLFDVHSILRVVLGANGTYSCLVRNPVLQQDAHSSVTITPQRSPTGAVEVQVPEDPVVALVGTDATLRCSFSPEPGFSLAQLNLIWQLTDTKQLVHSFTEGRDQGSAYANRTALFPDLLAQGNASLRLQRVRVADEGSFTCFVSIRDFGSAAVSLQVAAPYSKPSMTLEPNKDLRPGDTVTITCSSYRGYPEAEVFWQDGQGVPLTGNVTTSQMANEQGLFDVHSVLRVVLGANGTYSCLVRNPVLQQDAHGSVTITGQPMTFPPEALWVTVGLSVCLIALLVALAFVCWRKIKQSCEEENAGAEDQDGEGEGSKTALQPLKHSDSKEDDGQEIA

Substance hIgG1 isotype (antibody) showed an Antibody internalization Maximum MFI, MCF-7 cells, high-content imaging (negative control) in assay [1] of 21 MFI. Besides, the Maximum MFI in assay [2] was determined as 47.8 MFI; in assay [3] it was 6.67 MFI.
